{
  "source": "patent EP4711453A1",
  "about": "“PHENYLALANINE LYASE MUTANT, AND CONJUGATE THEREOF OR PHARMACEUTICALLY ACCEPTABLE SALT THEREOF” (Peg-Bio Biopharm Co., Ltd. (Chongqing), priority 2023, dated 2024)",
  "key": {"[1]": {"test": "Specific enzyme activity of phenylalanine lyase (trans-cinnamic acid formation, absorbance at 290 nm)", "assay_type": "biochemical", "settings": "polyethylene glycol conjugates; method as for the proteins", "protocol": "Phenylalanine lyase specifically catalyzes the conversion of phenylalanine into trans-cinnamic acid with the release of ammonia. […] Enzyme activity is defined as the amount of enzyme required to produce 1 µmol of trans-cinnamic acid per minute in buffer (100 mmol/L Tris-HCl, pH 8.5) at room temperature (25°C) as one unit of enzyme activity.\nThe specific enzyme activity of phenylalanine lyase and its mutants (i.e., PAL, PAL2, PAL3, and PAL4 proteins) prepared in Example 1 was evaluated by taking an appropriate amount of test sample and diluting it to 0.4 mg/ml using assay buffer (100 mmol/L Tris-HCl, pH 8.0). 2.9 ml of substrate solution (100 mmol/L Tris-HCl, 45 mmol/L Phe, pH 8.0) was placed in a cuvette, followed by addition of 0.1 ml of diluted test solution and immediate mixing. The changes in absorbance per minute were recorded at a wavelength of 290 nm, and the specific enzyme activity was calculated according to the formula. Enzyme activity (U/mg) = (AS−AO)VN × 10^6 /εLTV1 [formula]\nWhere AS and AO represent the absorbance of trans-cinnamic acid at the […] of the reaction, respectively; V is the total volume (L) of the reaction system; L is the optical path length of the cuvette (cm); ε is the molar extinction coefficient of trans-cinnamic acid (10238.1 L/(mol·cm)); T is the reaction time (min); N is the dilution factor of the test sample; V1 is the volume of test sample (ml).\nThe enzyme activity retention rate was calculated by comparing the specific enzyme activity of phenylalanine lyase mutants with the specific enzyme activity of the phenylalanine lyase. Table 2: Specific enzyme activity of phenylalanine lyase mutants\nThe specific enzyme activity of the polyethylene glycol conjugates of phenylalanine lyase and its mutants prepared in Step 1 of Example 2 was determined according to the method described in Step 1 of this example. The enzyme activity retention rate was calculated by comparing the specific enzyme activity of each conjugate with its specific enzyme activity prior to PEG modification (e.g., the enzyme activity retention rate of PL5-1 = specific enzyme activity of PL5-1 / specific enzyme activity of PAL protein). Table 3: Specific enzyme activity of PEGylated phenylalanine lyase mutants"}, "[2]": {"test_system": "anti-PAL-IgG", "test": "Immunogenicity of conjugates with different PEG molecular weights in rats: anti-PAL-IgG (ELISA)", "assay_type": "in vivo", "settings": "0.75 mg/kg s.c. once weekly", "protocol": "(§1) Polyethylene glycol conjugates of phenylalanine lyase or its mutant with different structures and modifier molecular weights, namely PL20, PL24, and PL54, were prepared according to the method described in Example 2. The phenylalanine lyase in PL20 has the amino acid sequence as set forth in SEQ ID NO: 1, and the polyethylene glycol has a molecular weight of 20K. The phenylalanine lyase in PL24 has the amino acid sequence as set forth in SEQ ID NO: 6, and the polyethylene glycol has a molecular weight of 2K. The phenylalanine lyase in PL54 has the amino acid sequence as set forth in SEQ ID NO: 6, and the polyethylene glycol has a molecular weight of 5K.\n(§2) To evaluate the immunogenicity of PL20, PL24, and PL54 in animals, normal rats were selected and divided into 3 groups, with 6 rats per group (3 males and 3 females). Subcutaneous administration was performed at a dose of 0.75 mg/kg with PL54 (average degree of modification 13.6, 1.27 U/mg), PL24 (average degree of modification 13.3, 0.96 U/mg), and PL20 (average degree of modification 7.6, 1.14 U/mg) for the three groups, respectively. Administration was repeated 7 times, once weekly. Blood samples were collected 7 days after each administration. Serum anti-PEG-IgG and anti-PAL4 protein antibodies were detected by ELISA (refer to Example 5 for details). In the table, \"1-7\" indicated 7 days after the first administration, and \"7-7\" indicated 7 days after the seventh administration. x represented the average OD value of antibody detection by ELISA, and the positive rate represented the ratio of the number of antibody-positive animals to the total number of animals in the group. Table 6: Antibody titers in rats after multiple administrations of polyethylene glycol conjugates with different molecular weights"}, "[3]": {"test_system": "anti-PEG-IgG", "design": "species or system rats", "settings": "rat, in vivo; for anti-PEG-IgG, Positive rate: sc, 0.75 mg/kg", "protocol": "as §1, §2"}, "[4]": {"settings": "1-7 (7 days after the first administration)"}, "[5]": {"settings": "1-7, antibody-positive animals / animals in the group"}, "[6]": {"settings": "7-7 (7 days after the seventh administration)"}, "[7]": {"settings": "7-7, antibody-positive animals / animals in the group"}},
  "data": [
    {"molecule": "PL20: polyethylene glycol conjugate of phenylalanine lyase SEQ ID NO: 1, polyethylene glycol molecular weight 20K, average degree of modification 7.6 [reference compound]", "values": [
      {"measurement": "Specific enzyme activity", "setting": "[1]", "value": 1.14, "unit": "U/mg"},
      {"measurement": "anti-PAL-IgG, x (average OD value of antibody detection by ELISA)", "setting": "[2]; [4]", "value": "x=0.118"},
      {"measurement": "anti-PAL-IgG, Positive rate", "setting": "[2]; [5]", "value": "Positive rate: 1/6"},
      {"measurement": "anti-PAL-IgG, x (average OD value of antibody detection by ELISA)", "setting": "[2]; [6]", "value": "x=0.102"},
      {"measurement": "anti-PAL-IgG, Positive rate", "setting": "[2]; [7]", "value": "Positive rate: 1/6"},
      {"measurement": "anti-PEG-IgG antibody titer, comparison between groups", "setting": "[3]", "value": "higher than that in the PL24 and PL54 groups"},
      {"measurement": "anti-PEG-IgG, Positive rate", "setting": "[3]", "value": "Positive rate: 6/6"}
    ]},
    {"molecule": "PL24: polyethylene glycol conjugate of phenylalanine lyase mutant SEQ ID NO: 6, polyethylene glycol molecular weight 2K, average degree of modification 13.3 (conjugate, PEG 2K conjugate, ~13.3 PEG per molecule) MKTLSQAQSKTSSQQFSFTGNSSANVIIGNQKLTINDVARVARNGTLVSLTNNTDILQGIQASCDYINNAVKSGEPIYGVTSGFGGMANVAISREQASELQTNLVWFLKTGAGNKLPLADVRAAMLLRANSHMRGASGIRLELIKRMEIFLNAGVTPYVYEFGSIGASGDLVPLSYITGSLIGLDPSFKVDFNGKEMDAPTALRQLNLSPLTLLPKEGLAMMNGTSVMTGIAANCVYDTKILTAIAMGVHALDIQALNGTNQSFHPFIHNSKPHPGQLWAADQMISLLANSQLVRDELDGKHDYRDHELIQDRYSLRCLPQYLGPIVDGISQIAKQIEIEINSVTDNPLIDVDNQASYHGGNFLGQYVGMGMDHLRYYIGLLAKHLDVQIALLASPEFSNGLPPSLLGNRERKVNMGLKGLQICGNSIMPLLTFYGNSIADRFPTHAEQFNQNINSQGYTSATLARKSVDIFQNYVAIALMFGVQAVDLRTYKKTGHYDARASLSPATERLYSAVRHVVGQKPTSDRPYIWNDNEQGLDEHIAKISADIAAGGVIVQAVQDILPSLH", "values": [
      {"measurement": "Specific enzyme activity", "setting": "[1]", "value": 0.96, "unit": "U/mg"},
      {"measurement": "anti-PAL-IgG, x (average OD value of antibody detection by ELISA)", "setting": "[2]; [4]", "value": "x=0.130"},
      {"measurement": "anti-PAL-IgG, Positive rate", "setting": "[2]; [5]", "value": "Positive rate: 4/6"},
      {"measurement": "anti-PAL-IgG, x (average OD value of antibody detection by ELISA)", "setting": "[2]; [6]", "value": "x=0.891"},
      {"measurement": "anti-PAL-IgG, Positive rate", "setting": "[2]; [7]", "value": "Positive rate: 6/6"},
      {"measurement": "anti-PEG-IgG, Positive rate", "setting": "[3]", "value": "Positive rate: 6/6"}
    ]}
  ]
}
